Assay results from patent US20250262323, “PCSK9 ENDONUCLEASE VARIANTS, COMPOSITIONS, AND METHODS OF USE” (Novo Nordisk A/S, published 2025).

Experiments:
[1] = target: T1, PCSK9.H7.C11 I-OnuI HE variant (synthetic construct (Ophiostoma …)); test: flow; sub-nanomolar affinity; yeast surface display substrate titration; exact value only in figure; conditions: tags: yeast surface display
T1 chain: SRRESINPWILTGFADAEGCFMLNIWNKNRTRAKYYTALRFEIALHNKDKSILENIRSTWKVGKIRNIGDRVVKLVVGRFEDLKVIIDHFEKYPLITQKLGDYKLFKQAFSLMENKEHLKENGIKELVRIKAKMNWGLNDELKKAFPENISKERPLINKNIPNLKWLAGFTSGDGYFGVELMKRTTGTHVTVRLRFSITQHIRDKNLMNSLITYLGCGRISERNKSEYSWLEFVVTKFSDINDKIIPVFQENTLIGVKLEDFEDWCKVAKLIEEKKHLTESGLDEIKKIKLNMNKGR

[2] = target: T1, PCSK9.H7.C11 I-OnuI HE variant; test: cell_activity; HEK 293T chromosomal mCherry reporter
Description: The activity of reprogrammed I-OnuI HEs that target exon 4 of the PCSK9 gene was measured using a chromosomally integrated fluorescent reporter system (Certo et. al., 2011). Fully reprogrammed I-OnuI HEs that bind and cleave the PCSK9 target sequence were cloned into mammalian expression plasmids and then individually transfected into a HEK 293T […] cell line that contained the PCSK9 target sequence upstream of an out-of-frame gene encoding the fluorescent mCherry protein. Cleavage of the embedded target site by the HE and the accumulation of indels following DNA repair via the non-homologous end joining (NHEJ) pathway results in approximately one out of three repaired loci placing the fluorescent reporter gene back “in-frame”. The percentage of mCherry fluorescing HEK 293T cells is therefore used a readout of endonuclease activity at the chromosomally embedded target sequence. […] FIG. 3 (top panels).
A secondary I-OnuI variant library was next generated by performing random mutagenesis on the PCSK9.H7 HE variant (e.g., SEQ ID NO: 6). Display-based flow sorting was performed under more stringent cleavage conditions in an effort to isolate variants with improved catalytic efficiency. FIG. 3 (bottom panel). This process led to variant PCSK9.H7.C11 (SEQ ID NO: 7) with an approximately 2-fold higher rate of mCherry expressing cells.

B1: PCSK9 exon 4 HE target site (dsDNA)
DNA 1: ATCTAAGAGATACACCTCCACC
DNA 2: GGTGGAGGTGTATCTCTTAGAT
Kd [1]: < 1 nM
activity [2]: ~2 fold vs PCSK9.H7
